For two substances, IC50 of inhibition of translation of nanoluciferase mRNA in RRL results are on record in article PMC11912008.

The target of the test is Rabbit (Oryctolagus cuniculus) 80S ribosome (rabbit (endogenous in rabbit reticulocyte lysate)) (UniProt G1U0Q2).

The substance “Refolded WT human angiogenin (from UniProt P03950 25-147) (enzyme)” came in with an IC50 of inhibition of translation of nanoluciferase mRNA in RRL of 0.033 µM. “Refolded angiogenin(K54E) (from UniProt P03950 25-147) (enzyme)” came in with an IC50 of inhibition of translation of nanoluciferase mRNA in RRL of 0.44 µM.
